Measured values reported in article PMC11756389.

Tests used:
[1] = biological target: T1, paired immunoglobulin-like receptor B (PIR-B), C-terminal biotinylated (mouse), P97484; assay: SPR
T1 chain: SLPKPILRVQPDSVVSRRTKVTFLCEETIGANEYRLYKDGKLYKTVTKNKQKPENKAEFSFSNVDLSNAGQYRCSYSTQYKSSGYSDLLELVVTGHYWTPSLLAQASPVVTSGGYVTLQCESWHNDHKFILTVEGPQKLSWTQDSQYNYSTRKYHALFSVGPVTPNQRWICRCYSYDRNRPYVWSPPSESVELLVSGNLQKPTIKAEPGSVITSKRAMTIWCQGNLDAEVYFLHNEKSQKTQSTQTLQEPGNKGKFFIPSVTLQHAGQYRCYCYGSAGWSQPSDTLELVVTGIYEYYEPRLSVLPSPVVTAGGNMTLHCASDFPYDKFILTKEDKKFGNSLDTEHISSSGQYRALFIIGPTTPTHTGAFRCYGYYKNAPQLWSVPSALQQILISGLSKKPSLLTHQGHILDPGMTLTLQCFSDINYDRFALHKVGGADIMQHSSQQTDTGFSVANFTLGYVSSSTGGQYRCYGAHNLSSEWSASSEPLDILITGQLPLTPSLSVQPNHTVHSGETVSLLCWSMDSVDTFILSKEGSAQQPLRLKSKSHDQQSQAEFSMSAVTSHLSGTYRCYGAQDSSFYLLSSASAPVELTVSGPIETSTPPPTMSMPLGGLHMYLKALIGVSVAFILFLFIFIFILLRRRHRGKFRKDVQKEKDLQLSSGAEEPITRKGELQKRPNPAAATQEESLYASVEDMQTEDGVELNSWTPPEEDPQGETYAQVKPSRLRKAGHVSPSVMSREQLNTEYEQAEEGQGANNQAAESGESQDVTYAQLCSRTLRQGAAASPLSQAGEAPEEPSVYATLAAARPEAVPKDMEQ

[2] = biological target: two N-terminal domains (D1D2) of LILRB2 with a C-terminal biotinylation tag, biotinylated (human); assay: SPR

- specific binding response at 6.2 μM [1]: 100 RU
- Kd [2]: 0.041 to 0.064 pM
B1: soluble HLA-G2 homodimer (non-PEGylated) (domain or fragment)
chain: GSHSMRYFSAAVSRPGRGEPRFIAMGYVDDTQFVRFDSDSACPRMEPRAPWVEQEGPEYWEEETRNTKAHAQTDRMNLQTLRGYYNQSEANPPKTHVTHHPVFDYEATLRCWALGFYPAEIILTWQRDGEDQTQDVELVETRPAGDGTFQKWAAVVVPSGEEQRYTCHVQHEGLPEPLMLRW
modifications: not checked
